The chains are these.
B1: (Phe94)-scFv (scFv, V domains shown)
VH: DIQLQESGPSLVKPSQTLSLTCSVTGDSITSDYWSWIRKFPGNRLEYMGYVSYSGSTYYNPSLKSRISITRDTSKNQYYLDLNSVTTEDTATYYCANWDGDYWGQGTLVTVSA
VL: DIVLTQSPATLSVTPGNSVSLSCRASQSIGNNLHWYQQKSHESPRLLIKYASQSISGIPSRFSGSGSGTDFTLSINSVETEDFGMYFCQQSNSFPYTFGGGTKLEIT
B2: ^5FW(Phe34)-scFv (scFv, V domains shown)
VH: B1 VH with W34F
VL: B1 VL with F94W
B3: (Phe34)-scFv (scFv, V domains shown)
VH: B1 VH with W34F
VL: B1 VL with F94W
B4: ^5FW(Phe36)-scFv (scFv, V domains shown)
VH: B1 VH with W36F
VL: B1 VL with F94W
B5: ^5FW(Phe94)-scFv (scFv, V domains shown)
VH: B1 VH
VL: B1 VL
B6: (Phe36)-scFv (scFv, V domains shown)
VH: B1 VH with W36F
VL: B1 VL with F94W

Residue numbers refer to the chain shown, from its start.

Chain of hen egg white lysozyme (P00698 19-147): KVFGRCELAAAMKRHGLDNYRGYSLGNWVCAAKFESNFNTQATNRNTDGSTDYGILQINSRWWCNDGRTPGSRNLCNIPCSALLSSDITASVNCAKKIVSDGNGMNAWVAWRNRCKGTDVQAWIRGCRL

The target in one assay is hen egg white lysozyme (hen) (UniProt P00698). The assay is described as follows: SPR. In general terms: SPR reads the build-up and loss of mass on a sensor chip optically.
Chain of hen egg white lysozyme (hen) (P00698 19-147): as above
What is called Kd is a measure of binding affinity in units of concentration. Low readings indicate tighter binding, high ones weaker binding. Molecule “^5FW-scFv (HyHEL10 scFv, all Trp residues substituted with 5-fluorotryptophan)” returned a Kd of 4.03 nM.

A further assay has as its target hen egg white lysozyme (Gallus gallus (hen egg white), UniProt P00698). The assay can be described thus: SPR.
B1 had a Kd of 0.272 nM.

Take B2: the Kd was 1.22 nM.

Regarding B3, the Kd is 0.266 nM.

B4 came in with a Kd of 4.22 nM. This Kd lies about 16-fold higher than the previous one.

Molecule B5 yielded a Kd of 1.99 nM. Compared with the last molecule, the Kd is about 2.1-fold lower.

As to B6, the affinity, expressed as Kd, was 0.559 nM. Compared with the last molecule, the Kd is about 3.6-fold lower.

The values are drawn from publication PMC3508667 (Biochemistry, 2012).
